# Source: the nanobody polyreactivity screen of Harvey et al. (2022)
# Test: yeast display, Sf9 membrane polyspecificity reagent, FACS + sequencing; frameworks hold sequencing errors
# Summary of the method: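 Galactose-induced (36–48 hours) yeast carrying a synthetic nanobody display library were exposed to 10% biotinylated, detergent-solubilized Sf9 membrane reagent at 4 °C for 1 hour. FACS followed streptavidin microbead enrichment, using low and high (top ~1%) gates for expression (anti-HA) and reagent binding (streptavidin). Colony PCR, MiSeq 2 × 250 sequencing and CDR-length filtering followed. Labels for polyreactivity reflect the gate of origin.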
row,Sequence,polyreactivity (PSR sort gate)
1,QVQLVESGGGLVQAGGSLRLSCAASGITFYLYAMGWYRQAPGKERELVAAISGRGGITYYADSVKGRFTISRDNAKNTVYLQMNSLKPEDTAVYYCAAGKLIWGQGTQVTVSS,high polyreactivity
2,QVQLVESGGGLVQAGGSLRLSCAASGITFYPYAMGWYRQAPGKERELVAAISFSGGSTYYADSVKGRFTISRDNAKNTVYLQMNSLKPEDTAVYYCAADRRSGDDYWGQGTQVTVSS,high polyreactivity
3,QVQLVESGGGLVQAGGSLRLSCAASGITFYPYAMGWYRQAPGTERELVAAITGSGGRTYYADSVKGRFTISRDNAKNTVYLQMNSLKPEDTAVYYCAKVARYPDMGYWGQGTQVTVSS,high polyreactivity
4,QVQLVESGGGLVQAGGSLRLSCAASGITFYTYVMGWYRQAHGKERELVAAITNADSTYYADSVKGRFTISRDNAKNTVYLQMNSLKPEDTAVYYCAADWYWGGIVDSWGQGTQVTVSS,high polyreactivity
5,QVQLVESGGGLVQAGGSLRLSCAASGITFYVNAMGWYRQAPGKERELVAAINSGSTNYADSVKGRFTISRDNAKNTVYLQMNSLKPEDTAVYYCAVDVYWEFSPEYDYWGQGTQVTVSS,low polyreactivity
6,QVQLVESGGGLVQAGGSLRLSCAASGITFYVNAMGWYRQAPGKERELVAAITQSVDITSYADSVKGRFTISRDNAMNTFYLQINRLKPEYTAVYYCATRGIPDDNARDYWGQGTQVTVSS,low polyreactivity
7,QVQLVESGGGLVQAGGSLRLSCAASGITFYVYAMGWYRQAPGKERELVAAISGSGGNTYYADSVKGRFTISRDNAKNTVYVQMNSLKPEDTAVYYCNADDHSPYYCDLDYWGQGTQVTVSS,low polyreactivity
8,QVQLVESGGGLVQAGGSLRLSCAASGITFYYYAMGWYRPAPGKERELVADITGTGSRTYYADSVKGRFTISRDNAKNTVYLQMNSLKPEDTAVYYCAATKRFPWFVYGEGDSWGQGTQVTVSS,high polyreactivity
9,QVQLVESGGGLVQAGGSLRLSCAASGITFYYYAMGWYRQAPGKERELVAAISTRDGNTYYADSVKGRFTISRDNAKNTVYLQMNSLKPEDTAVYYCAADYFRYYPYDYWGQGTQVTVSS,low polyreactivity
10,QVQLVESGGGLVQAGGSLRLSCAASGITFYYYAMGWYRQAPGKERELVASISSVGSTYYADSVKGRFTISRDNAKNTVYLQMNSLKPEDTAVYYCAAVDYVRYYPDEFDYWGQGTQVTVSS,low polyreactivity
11,QVQLVESGGGLVQAGGSLRLSCAASGITFYYYTMGGYRQAPGKERELVAGITRGGRTYYADSVKGRFTISRDNAKNTVYLQMNSLKPEDTAVYYCNADPWWRFDYWGQGTQVTVSS,low polyreactivity
12,QVQLVESGGGLVQAGGSLRLSCAASGITFYYYTMGWYRQAPGKERELVAAITSRGGNTYYADSVKGRFTISRDYAKNTVYLQMNSLKPEDTAVYFCAASRFSSRGYGYWGQGTQVTVCS,high polyreactivity
13,QVQLVESGGGLVQAGGSLRLSCAASGITFYYYVMGWYRQAPGKERELVASISRGGSTYYADSVKGRFTISRDNAKNTVYLQMNSLKPEDTAVYYCAAAGNRPWSITPFRKRYGYNYWGQGSQVTVSS,high polyreactivity
14,QVQLVESGGGLVQAGGSLRLSCAASGITIKRYPMGWYRQAPGKEREFVATSSQSGTSTYYADSVKGRFTISRDNAKYTVYLQLNSLKPEDTAVYYCAADYIGYWYGYYSWGQGTQVTVSS,low polyreactivity
15,QVQLVESGGGLVQAGGSLRLSCAASGITIRYYTMGWYRQAPGKERELVASISWSGTSTHYADSVKGRFTISRDNAKNTVYLQMNSLKPEDTAVYYCAATITSLAGGYRNGYTSYYWGQGTQVTVSS,high polyreactivity
16,QVQLVESGGGLVQAGGSLRLSCAASGITIRYYTMGWYRQAPGKESELVASISWSGTSTHYADSVKGRFTISRDNAKNTVYLQMNSLKPEDTAVYYCAATITSLAGVYRNGYTSYYWGQGTQVTVSS,high polyreactivity
17,QVQLVESGGGLVQAGGSLRLSCAASGITISYYAMGWYRQAPGKERELVAAISFSGARTYYADSVKGRFTISRDNAKNTVYLQMNSLKPEDTAVYYCNAVSGIVQRYDYWGQGTQVTVSS,high polyreactivity
18,QVQLVESGGGLVQAGGSLRLSCAASGITIVRYAMGWYRQAPGKERELVAAINRSGGSTYYADSVKGRFTISRDNAKNTVYLQMNSLKPEDTAVYYCAARLYGKYDPPGYYYWGQVTQVTVSS,high polyreactivity
19,QVQLVESGGGLVQAGGSLRLSCAASGITIWGYTMGWYRQAPGKERELVAAITSTGSTYYADSVKGRFTISRDNAKNHVYFQMNSQKPEDTSVYYCAATRGSSDYYYWGQGTQVTVSS,low polyreactivity
20,QVQLVESGGGLVQAGGSLRLSCAASGITIYIYAMGWYRQAPGKERELVAAISDVGSTHYADSVKGRFTISRDNAKNTVYLQMNSLKPEDTAVYYCNADYYWFFVFFDYDYWGQGTQVSVSS,low polyreactivity
21,QVQLVESGGGLVQAGGSLRLSCAASGITLALYAMGWYIQAPGKERELVAAISWTGGSTYYADSVKGRFTISRDNAKNTVYLQMNSLKPEDPAVYYCNAVPGPPHSYLGGDYWGQGTQVTVSS,high polyreactivity
22,QVQLVESGGGLVQAGGSLRLSCAASGITLARNAMGWYRQAPGKERELVASITWSGGTTYYADSVKGRFTISRDNAKNTVYLQMISLKPEDTAVYYCAASAKLHYYRTYRYNYWGQGTQVSVSS,high polyreactivity

row,Sequence,polyreactivity (PSR sort gate)
1,QVQLVESGGGLVQAGGSLRLSCAASGITLFYSAMGWYRQAPGKERELVAAISWSGGSTYYADSVKGRFTISRDNAKNTVYLQMNSLKPEDTAVYYCAAGYIRFYRSREYWGQGTQVTVSS,high polyreactivity
2,QVQLVESGGGLVQAGGSLRLSCAASGITLFYYAMGWYRQAPGKERELVAVISASGGSTYYADSVKGRFTISRDNAKNTVYLQMNSLKPEDTAVYYCAAVAYWRSSSWYYYWGQGTQVTVSS,high polyreactivity
3,QVQLVESGGGLVQAGGSLRLSCAASGITLGAYAMGWYRQAPGKERELVAAISRSGGSTYYADSVKGRFTISRDNAKNTVYLQMNSLKPEDTAVYYCNAPRFVSYDYWGQGTQVTVSS,high polyreactivity
4,QVQLVESGGGLVQAGGSLRLSCAASGITLGRYAMGWYRQAPGKERELVAAISWSGGTTYYADSVKGRFTISRDTAKNTVDLQMNSLKPEDTAGYYCTKESPYRQWGWSYYYWGQGTQVTVSS,high polyreactivity
5,QVQLVESGGGLVQAGGSLRLSCAASGITLGRYSMGLYRQAPGKVRELVAVISDSGGSTYYADSVKGRFTISRDNAKNTVYLQMNSLKPEYTAVYYCARRFDRYPRYYYWGQGTQVTVSS,high polyreactivity
6,QVQLVESGGGLVQAGGSLRLSCAASGITLRRNTMGWDRQAPGKERELVAAITRSGGSTYYADSVKGRFTISRDNAKNTVYLQMNSLKPEDTAVYYCAKGPSYGGPSHDYWGQGTQVTVSS,high polyreactivity
7,QVQLVESGGGLVQAGGSLRLSCAASGITLTKNAMGWYRQAPGKERELVAGITRGSRTNYADSVKGRFTISRDNAKNSVYLQMNSLIPEDTAVYYCAASYWPYRGPVGGSKMYFWGQGTQVTVSS,high polyreactivity
8,QVQLVESGGGLVQAGGSLRLSCAASGITLYRYVMGWYRQAPGKERELLADISGRGTSTYYADSVKGRFTISRDNAKNTVYLQMNSLNAEDTAVYYCNAEFTKSGALVIPYTYYYAEDYWGQGSQVTVSS,low polyreactivity
9,QVQLVESGGGLVQAGGSLRLSCAASGITLYYYAMGWYRQAPGKEREFVAAITWRGTNTYYADSVKGRFTISRDNAKNTVYLQMNSLKPEDTAVYYCAADYEQRVADYYYWGQGTQVTVSS,low polyreactivity
10,QVQLVESGGGLVQAGGSLRLSCAASGITLYYYTMGWYRQAPGKERELVAAISGSGGSTYYADSVKGRFTISRDNAKNTVYLQMNSLKPEDTAVYYCNTARSLKNHFYKYDYWGHGTQVTVSS,high polyreactivity
11,QVQLVESGGGLVQAGGSLRLSCAASGITRGSNAMGWYRQAPGTERELVAAITSGSSTYYADSVKGRFTISRDNAKNTVYLQMNSLKPEDTAVYYCAAEWWDVIAPYEYWGQGTQVTVSS,low polyreactivity
12,QVQLVESGGGLVQAGGSLRLSCAASGITSNSYAMGWYRQAPGKERELVATITSGGSTNYADSVKGRFTISRDNAKNSVYLQMNSLKPEDTAVYYCNREDWLPTQYDYWGQGTQVTVSS,low polyreactivity
13,QVQLVESGGGLVQAGGSLRLSCAASGITSPAYAMGWYRQAPGKEREFVAAISSSGVSTYYADSVKGRFTISRDNAKNTVYLQMNRLKPEDTAVYYCNTVSWPLSSKYYYWGQGTQVTVSS,high polyreactivity
14,QVQLVESGGGLVQAGGSLRLSCAASGITSRPYVMGGYRQAPGKERELVAAISLTGGRTYYADSVKGRFTISRDNAKNTVYLQMNSLKPEDTAVYYCAAKYSNGSGFDYWGQGTQVTVSS,high polyreactivity
15,QVQLVESGGGLVQAGGSLRLSCAASGITSRQYAMGWYRQAPGKERELVAAISFSGGRTYYADSVKGRFTISRDNAKNTVYLQMNSLKPEDTAVYYCATRNRYSPRDYWGQGTQVTVSS,high polyreactivity
16,QVQLVESGGGLVQAGGSLRLSCAASGITSSLNAMGWYRQAPGKERELVAAISWRGGSTYYADSVKGRFTISRDNAKNTVNLRMHSLKPEDTAVYYCNVVKRSFRYDYWGQGTQVTVSS,high polyreactivity
17,QVQLVESGGGLVQAGGSLRLSCAASGITSSYAMGWYRQAPGKERELVAAISRGGSTYYADSVKGRFTISRDNAKNTVYLLLNSLKPEDTAVYYCNKRRYPYGWGQGTLVTVSS,high polyreactivity
18,QVQLVESGGGLVQAGGSLRLSCAASGITSVVYAMGWYRQAPGKERELVAAISSAGSTYYADSVKGRFTISRDNAKNTVYLQMNSLKPEDTAVYYCAAAGYPQTYLYYYWGQGTQVTVSS,low polyreactivity
19,QVQLVESGGGLVQAGGSLRLSCAASGITVNSYAMGWYRQAPGKERELVAAISGSGSSTYYADSVKGRFTISRDNAKNTVYLQMNSLKPEDTAVYYCAATGFSSWTYYTHEYWGQGTQVTVSS,low polyreactivity
20,QVQLVESGGGLVQAGGSLRLSCAASGITVYVNVMGWYRQAPGKERELVAGISYSGGSTYYADSVKGRFTISRDNAKNTVYLQMNSLKPEDTAVYYCAADYWYYGSPVSRPYYYWGQGTQVTVSS,high polyreactivity
21,QVQLVESGGGLVQAGGSLRLSCAASGITYYRNAMGWYRQAPGKERELVAAISWSGGRTYYADSVKGRFTISRDNAKNTVYLQMNSLKPEDTAVYYCNKYTHYYDYDYWGQGTQVTVSS,high polyreactivity
